From PMC2847151 (2009) come the findings set out here.

One experiment addresses Abl SH3 (Homo sapiens, UniProt P00519). The experiment is described as follows: fluorescence titration.
In the next experiment the target is T1, Lck SH3 (Homo sapiens, UniProt P06239).
T1 chain: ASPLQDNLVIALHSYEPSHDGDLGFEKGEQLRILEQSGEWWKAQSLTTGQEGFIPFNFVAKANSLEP
In words: fluorescence titration.

Sequence of Abl SH3 (P00519 58-124): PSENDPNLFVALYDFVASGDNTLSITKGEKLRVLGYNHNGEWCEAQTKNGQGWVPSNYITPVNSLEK

On to Ac-QLPPGPPGAPKPPPAS-NH2 [MED25], for which the results for the dissociation constant (Kd) in the experiment with Abl SH3 and with Lck SH3 were 2.37 µM and 33.5 µM, respectively.

A word on the Kd: it is a measure of binding affinity in units of concentration. A higher Kd goes with weaker binding.
